Legend:
[1] = molecular target: T1, recombinant human epiregulin containing the epidermal growth factor (EGF) domain (R&D Biosciences Cat … (human, UniProt O14944 63-108)); test: cell-based or functional assay
[2] = molecular target: T1, recombinant human epiregulin containing …; test: cell-based or functional assay; remark: listed apart in the source
[3] = molecular target: T1, recombinant human epiregulin containing …; test: Octet bio-layer interferometry, recombinant human epiregulin immobilized
[4] = molecular target: T1, recombinant human epiregulin containing …; test: cell-based or functional assay; remark: listed apart in the source

T1 sequence (O14944 63-108 limits assumed): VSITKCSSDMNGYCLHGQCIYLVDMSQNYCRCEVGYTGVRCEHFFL

IC50 of inhibition of epiregulin-induced HFF proliferation (rhEreg 100 ng/ml) [1]: 0.1 to 0.3 µg/mL | IC50 of inhibition of HFF proliferation induced by 100 ng/ml rhEreg (GFP fluorescence, CyQUANT, day 3) [2]: 0.27 µg/mL | Kd [3]: 0.038 nM | IC50 (nM), calculated from HFF proliferation assays [4]: 1.8 nM
B1: humanized epiregulin neutralizing antibody 1 (hEreg NAb1) (antibody, V domains shown)
VH: HLQLQESGPGLVKSSETLSLTCSVSGGSISSSGYYWGWIRQPPGKGLEWIGSFYYSGNTYYNPSLKSRVTISADTSKSQYSLKLSSVTAADTAVYYCARHPFNWNDHYHYMDVWGNGTTVTVSS
VL: DIQMTQSPSSLSASVGDSVTITCRASQSISNYLNWYQKKPGKAPKVLIYAASSLQSGVPSRFSGSGSGTDFTLTISSLQPEDFATYYCQQSYITSITFGQGTRLEIK
notes: The clone comes from hybridomas of Alloy mice (fully human variable regions) and represents wells M3, M4 and M5; also called humanized epiregulin antibody; M3
